{
  "source": "patent US20140314747A1",
  "about": "“PREDICTING RESPONSE TO EGFR INHIBITORS” (Genentech, Inc., priority 2013, published 2014)",
  "tested_on": "mesenchyme free lung explants (lung epithelium in Matrigel)",
  "assay": "mesenchyme-free lung explant culture, growth and branching",
  "format": "cell-based, mouse",
  "conditions": "both LKB1 wt/wt and LKB1 MG/MG, presence and absence of NMPP1",
  "protocol": "Pancreas and individual lobes of the lungs were dissected from embryos harvested from timed pregnancy setups. Embryonic explants were cultured on 12 mm Transwell® with 0.4 μm polyester membrane insert (Corning, Tewsbury, Mass.) at the air-liquid interface in DME media with 10% fetal calf serum, glutamine and penicillin-streptomycin. For longer-term cultures (>3 days), media was changed daily.\nFor mesenchyme-free cultures, lungs were dissected and incubated in Collagenase/Dispase (1 mg/ml for each) for 10-15 minutes at room temperature. Epithelial tissue was removed by mechanical dissection, transferred to the Transwell® plates, and covered with 5-10 μl of 1:1 Matrigel:DME. After Matrigel was solidified, 400 μl media (DME/10% FCS/glutamine/pen-strep+200 ng/ml FGF7 (Life Technologies, Carlsbad, Calif.), FGF1 (Life Technologies), or EGF (Life Technologies)) was added to top and bottom wells. Erlotinib (Tarceva®, 1 μM hydrochloride salt; OSI Pharmaceuticals) or DMSO was added as indicated.\nEmbryonic explants were fixed in 4% paraformaldehyde, permeabilized in PBS with 2% BSA, 0.1% saponin or 0.1% Triton-X100. After washing, tissues were stained with anti-E-cadherin (Santa Cruz). […]\nHomozygous germline mutations in LKB1 in mice are early embryonic lethal. […] During this time, the response of these tissues to growth factors was assessed.",
  "data": [
    {"molecule": "FGF-7: fibroblast growth factor FGF-7 (Life Technologies) (protein, UniProt P21781 32-194, looked up) Fibroblast growth factor 7: CNDMTPEQMATNVNCSSPERHTRSYDYMEGGDIRVRRLFCRTQWYLRIDKRGKVKGTQEMKNNYNIMEIRTVAVGIVAIKGVESEFYLAMNKEGKLYAKKECNEDCNFKELILENHYNTYASAKWTHNGGEMFVALNQKGIPVRGKKTKKEQKTAHFLPMAIT", "values": [
      {"measurement": "growth of mesenchyme free lung cultures", "value": "robust growth"}
    ]}
  ]
}
